From doi:10.1101/292672

Biological target: SARS-CoV S 2P ectodomain (SARS-CoV (Tor2 strain)) (UniProt P59594)
Assay: cryo-EM structure

Substance: SARS-CoV S 2P ectodomain (from UniProt P59594 14-1190) (domain or fragment)
- stoichiometry N: 3
